Measurements: PMC12802937 (Nucleic Acids Research, 2026)
Positions count from the first letter of the chain named. In names and notes the source's numbering stands.

T1: Bre1-LR (Bre1 residues 227–700, LBD and RING domains), 6× histidine tag (budding yeast, UniProt Q07457 227-700)
T1 construct: two Bre1 polypeptides form the dimeric coiled-coils of the LBD in the crystal structure; also called WT; source: E. coli BL21 Rosetta (DE3), purified (Ni-NTA, heparin, gel filtration)
T1 sequence (looked up): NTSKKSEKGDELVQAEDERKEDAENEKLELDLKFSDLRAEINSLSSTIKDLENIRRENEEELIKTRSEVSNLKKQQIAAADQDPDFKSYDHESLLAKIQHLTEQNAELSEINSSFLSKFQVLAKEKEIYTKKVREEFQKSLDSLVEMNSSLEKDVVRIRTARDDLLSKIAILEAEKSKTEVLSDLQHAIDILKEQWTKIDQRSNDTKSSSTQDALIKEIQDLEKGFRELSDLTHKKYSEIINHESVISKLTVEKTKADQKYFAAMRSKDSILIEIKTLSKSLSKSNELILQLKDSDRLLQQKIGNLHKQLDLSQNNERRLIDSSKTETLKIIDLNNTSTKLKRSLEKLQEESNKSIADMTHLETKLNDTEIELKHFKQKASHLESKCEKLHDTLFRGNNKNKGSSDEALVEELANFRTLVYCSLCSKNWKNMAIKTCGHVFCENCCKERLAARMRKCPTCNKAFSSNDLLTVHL

T2: Bre1, 6× histidine tag, purified (budding yeast, UniProt Q07457 1-700)
T2 construct: Bre1, budding yeast; the BRE1 gene inserted into pET26b; source: E. coli BL21 Rosetta (DE3), purified (Ni-NTA, heparin, gel filtration)
T2 sequence (looked up): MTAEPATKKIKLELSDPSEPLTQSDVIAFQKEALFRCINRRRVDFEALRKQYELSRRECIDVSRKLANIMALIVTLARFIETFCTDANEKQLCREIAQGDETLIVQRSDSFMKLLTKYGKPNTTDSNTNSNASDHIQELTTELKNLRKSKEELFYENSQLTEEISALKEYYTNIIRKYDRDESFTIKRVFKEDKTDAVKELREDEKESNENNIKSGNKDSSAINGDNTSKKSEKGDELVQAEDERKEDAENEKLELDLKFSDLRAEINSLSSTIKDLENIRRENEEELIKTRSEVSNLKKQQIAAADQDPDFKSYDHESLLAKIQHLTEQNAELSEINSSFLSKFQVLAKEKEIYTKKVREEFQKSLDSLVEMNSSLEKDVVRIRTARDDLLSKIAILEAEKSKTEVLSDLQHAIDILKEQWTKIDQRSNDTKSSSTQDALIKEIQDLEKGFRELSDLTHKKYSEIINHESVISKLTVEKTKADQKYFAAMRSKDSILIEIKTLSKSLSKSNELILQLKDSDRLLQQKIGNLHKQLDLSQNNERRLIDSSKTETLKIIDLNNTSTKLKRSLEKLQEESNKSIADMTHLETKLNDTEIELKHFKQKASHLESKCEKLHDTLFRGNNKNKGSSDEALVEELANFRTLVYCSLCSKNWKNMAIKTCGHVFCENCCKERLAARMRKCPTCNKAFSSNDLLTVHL

B1: Lge1-CT E301K/R305E (domain or fragment, budding yeast, UniProt Q02796 261-332, looked up)
chain: KNVKKTNNTESECEKAREVFKESDSIDSALEELNLKINSNKLELELLNNQCDKHALNIQLTQEKLDSLLLMQ
notes: Lge1, budding yeast, residues 261-332; source: E. coli BL21 Rosetta (DE3): cleared cell extract on chitin resin (pull-down); purified (chitin, heparin, gel filtration) for ITC and SPR
B2: Lge1-CT L316N (domain or fragment, budding yeast, UniProt Q02796 261-332, looked up)
chain: B1 chain with K41E, E45R, L56N
notes: as for B1
B3: Lge1-CT I318D (domain or fragment, budding yeast, UniProt Q02796 261-332, looked up)
chain: B1 chain with K41E, E45R, I58D
notes: as for B1
B4: Lge1-CT E303K (domain or fragment, budding yeast, UniProt Q02796 261-332, looked up)
chain: B1 chain with K41E, E43K, E45R
notes: as for B1
B5: Lge1-CT K324E (domain or fragment, budding yeast, UniProt Q02796 261-332, looked up)
chain: B1 chain with K41E, E45R, K64E
notes: as for B1
B6: Lge1-CT K313E/H314E (domain or fragment, budding yeast, UniProt Q02796 261-332, looked up)
chain: B1 chain with K41E, E45R, K53E, H54E
notes: as for B1
B7: Lge1-CT L325N (domain or fragment, budding yeast, UniProt Q02796 261-332, looked up)
chain: B1 chain with K41E, E45R, L65N
notes: as for B1
B8: Lge1-CT L320N (domain or fragment, budding yeast, UniProt Q02796 261-332, looked up)
chain: B1 chain with K41E, E45R, L60N
notes: as for B1
B9: intein-CBD-tagged WAC-CT (WAC residues 570–647) (domain or fragment, human, UniProt Q9BTA9 570-647, looked up)
chain: HVQGWPADHAEKQASRLREEAHNMGTIHMSEICTELKNLRSLVRVCEIQATLREQRILFLRQQIKELEKLKNQNSFMV
notes: WAC, human, residues 570-647; purified on Ni-NTA although no histidine tag is named; also called intein-WAC; WT; source: purified (Ni-NTA, heparin, gel filtration)
B10: intein-WAC S5 (E635K/E637K/K640E) (domain or fragment, human, UniProt Q9BTA9 570-647, looked up)
chain: B9 chain with E66K, E68K, K71E
notes: WAC, human, residues 570-647; source: purified (Ni-NTA, heparin, gel filtration)
B11: intein-WAC S1 (D577K/E580K/R587E) (domain or fragment, human, UniProt Q9BTA9 570-647, looked up)
chain: B9 chain with D8K, E11K, R18E
notes: as for B10
B12: intein-WAC S4 (R630E) (domain or fragment, human, UniProt Q9BTA9 570-647, looked up)
chain: B9 chain with R61E
notes: as for B10
B13: intein-WAC S2 (E604K/K606E/R609E/R613E/E616K) (domain or fragment, human, UniProt Q9BTA9 570-647, looked up)
chain: B9 chain with E35K, K37E, R40E, R44E, E47K
notes: as for B10
B14: intein-WAC S3 (R622E/E623K/R625E) (domain or fragment, human, UniProt Q9BTA9 570-647, looked up)
chain: B9 chain with R53E, E54K, R56E
notes: as for B10
B15: Lge1, 6× histidine tag, purified (natural protein, budding yeast, UniProt Q02796 1-332, looked up)
chain: MSGYTGNNYSRYSSTPPRQRGGYHHARRSRGGAGGSYYRGGNASYGARYNSDYEQPPQEGDLRQTGAYYRNGYTDTRPYYSANSRHYQAQPSPRYNNGTNSYHLPQRGNSQDTNGRTTSASQEDNDEKRVKSRYRNMQADHPRQQPMSVGSTSSRNGSSGNSSTSSTSNGLPPPPSVSSITNNRSYHSSAYPYSSSHTYNNYHHRETPPPPPSNGYYAKGYPVHVPENRSNSDGSSSSVVKKKRILDMKDSPFIYLTDFDKNVKKTNNTESECEKAREVFKESDSIDSALEELNLKINSNELELRLLNNQCDKHALNIQLTQEKLDSLLLMQ
notes: Lge1, budding yeast; source: E. coli BL21 Rosetta (DE3), purified (Ni-NTA in 8 M urea, urea removed by washing)

The binders below were run against T1, Bre1-LR (Bre1 residues 227–700, LBD and …) (assay: ITC; Lge1-CT (50–60 μM) injected into Bre1-LR (15 μM); 25°C, 20 mM TRIS (pH 7.5), 200 mM sodium chloride). Details: both partners purified.

Kd [nM] | dH [kcal/mol] | stoichiometry N | Binder
59.7 ± 38.2 | -19.4 ± 2.3 | 0.585 ± 0.022 | B1
52.2 ± 4.9 | -65.4 ± 0.7 | 0.293 ± 0.002 | B2
21.1 ± 3.7 | -53.6 ± 0.8 | 0.37 ± 0.022 | B3
132 ± 24 | -46.7 ± 2.2 | 0.587 ± 0.011 | B4
8.77 ± 2.09 | -48 ± 0.7 | 0.329 ± 0.001 | B5
33.9 ± 8.4 | -43.6 ± 1.1 | 0.392 ± 0.005 | B6
8.06 ± 1.52 | -61.2 ± 0.6 | 0.367 ± 0.001 | B7
23.7 ± 3.8 | -49.9 ± 0.6 | 0.37 ± 0.002 | B8

Each binder was assayed against T1, Bre1-LR (Bre1 residues 227–700, LBD and …) (assay: SPR; Lge1-CT immobilised on a CM5 chip, Bre1-LR flown over; Biacore 8K, 25°C, 20 mM HEPES (pH 7.5), 200 mM sodium chloride, 0.02% Tween 20). Details: both partners purified.

Kd [nM] | koff [s⁻¹] | kon [M⁻¹ s⁻¹] | Binder
81.7 |  |  | B1
62.8 | 0.00527 | 84000 | B2
20.7 | 0.00155 | 74800 | B3
63.8 |  |  | B4
49.8 | 0.00509 | 102000 | B5
51.8 | 0.00947 | 183000 | B6
58.7 | 0.00328 | 55900 | B7
50.8 | 0.00417 | 82000 | B8

What follows are binders tested against T3, RNF-MD complex (strep-SUMO-RNF20 residues 321–900 with MBP-RNF40 residues 327–926) (human, UniProt Q5VTR2 321-900; O75150 327-926) (assay: SPR; RNF-MD immobilised on a CM5 chip, intein-WAC flown over; Biacore 8K, 25°C, 20 mM HEPES (pH 7.5), 200 mM sodium chloride, 0.02% Tween 20). Details: both partners purified.
T3 construct: RNF20, human, residues 321-900; RNF40, human, residues 327-926; heterodimer; also called RNF20/RNF40; WT; source: E. coli BL21 Rosetta (DE3), purified from the mixed cell extract (strep-tactin, dextrin, gel filtration); copies: 1 + 1
T3 sequence (Q5VTR2 321-900, chain 1 of 2): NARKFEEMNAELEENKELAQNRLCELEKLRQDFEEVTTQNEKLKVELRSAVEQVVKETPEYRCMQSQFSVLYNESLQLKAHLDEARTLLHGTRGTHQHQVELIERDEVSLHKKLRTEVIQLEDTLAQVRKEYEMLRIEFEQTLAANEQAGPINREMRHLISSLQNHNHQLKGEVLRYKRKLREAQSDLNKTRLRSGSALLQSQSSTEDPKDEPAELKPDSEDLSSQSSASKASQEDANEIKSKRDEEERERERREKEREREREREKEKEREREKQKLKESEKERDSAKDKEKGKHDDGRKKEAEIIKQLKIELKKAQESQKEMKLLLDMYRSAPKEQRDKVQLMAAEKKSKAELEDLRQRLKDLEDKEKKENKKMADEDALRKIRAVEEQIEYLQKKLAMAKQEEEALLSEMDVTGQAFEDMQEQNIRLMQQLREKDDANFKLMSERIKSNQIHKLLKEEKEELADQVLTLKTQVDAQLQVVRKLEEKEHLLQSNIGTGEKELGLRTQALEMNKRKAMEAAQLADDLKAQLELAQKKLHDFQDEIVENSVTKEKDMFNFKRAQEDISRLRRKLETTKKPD
T3 sequence (O75150 327-926, chain 2 of 2): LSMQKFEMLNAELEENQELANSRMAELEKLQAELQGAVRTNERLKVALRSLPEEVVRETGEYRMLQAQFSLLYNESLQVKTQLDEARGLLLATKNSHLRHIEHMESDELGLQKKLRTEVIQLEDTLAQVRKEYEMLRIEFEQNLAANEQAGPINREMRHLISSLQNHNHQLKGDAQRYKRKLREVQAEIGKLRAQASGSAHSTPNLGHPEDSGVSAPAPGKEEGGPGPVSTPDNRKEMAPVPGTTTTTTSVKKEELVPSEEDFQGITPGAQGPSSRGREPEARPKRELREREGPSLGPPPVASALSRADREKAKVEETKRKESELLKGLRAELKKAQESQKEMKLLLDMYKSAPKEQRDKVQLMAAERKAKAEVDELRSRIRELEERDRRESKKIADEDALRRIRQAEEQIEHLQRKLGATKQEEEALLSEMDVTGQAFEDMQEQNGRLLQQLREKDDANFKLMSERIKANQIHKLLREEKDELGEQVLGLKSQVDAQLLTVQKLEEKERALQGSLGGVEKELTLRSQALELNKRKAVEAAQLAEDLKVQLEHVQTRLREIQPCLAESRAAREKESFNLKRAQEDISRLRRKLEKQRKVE

Kd [nM] | koff [s⁻¹] | kon [M⁻¹ s⁻¹] | Binder
504 | 0.0234 | 46400 | B9
325 | 0.0143 | 44100 | B10
514 | 0.0165 | 32000 | B11
1190 | 0.0138 | 11600 | B12

The binders below were run against T4, RNF-MD S1i (E822K/R826E in RNF20 and K860E in RNF40) (human, UniProt Q5VTR2 321-900; O75150 327-926, E822K | R826E | K860E) in the same assay as above. Details: both partners purified.
T4 construct: RNF20, human, residues 321-900; RNF40, human, residues 327-926; source: E. coli BL21 Rosetta (DE3), purified from the mixed cell extract (strep-tactin, dextrin, gel filtration); copies: 1 + 1
T4 sequence (Q5VTR2 321-900 E822K/R826E, chain 1 of 2): as the sequence (Q5VTR2 321-900, chain 1 of 2) above, with E502K, R506E counted along it
T4 sequence (O75150 327-926 K860E, chain 2 of 2): as the sequence (O75150 327-926, chain 2 of 2) above, with K534E counted along it

Kd [nM] | koff [s⁻¹] | kon [M⁻¹ s⁻¹] | Binder
539 | 0.0168 | 31300 | B9

What follows are binders tested against T5, RNF-MD S2i (E427K/K804E in RNF20 and E428K/E431K/E434K/R442E/E832K/E835K in RNF40) (human, UniProt Q5VTR2 321-900; O75150 327-926, E427K | K804E | E428K | E431K | E434K | R442E | E832K | E835K) in the same assay as above. Details: both partners purified.
T5 construct: RNF20, human, residues 321-900; RNF40, human, residues 327-926; source: E. coli BL21 Rosetta (DE3), purified from the mixed cell extract (strep-tactin, dextrin, gel filtration); copies: 1 + 1
T5 sequence (Q5VTR2 321-900 E427K/K804E, chain 1 of 2): as the sequence (Q5VTR2 321-900, chain 1 of 2) above, with E107K, K484E counted along it
T5 sequence (O75150 327-926 E428K/E431K/E434K/R442E/E832K/E835K, chain 2 of 2): as the sequence (O75150 327-926, chain 2 of 2) above, with E102K, E105K, E108K, R116E, E506K, E509K counted along it

Kd [nM] | koff [s⁻¹] | kon [M⁻¹ s⁻¹] | Binder
262 | 0.00338 | 12900 | B13

These binders were tested against T6, RNF-MD S3i (E783K/D786K in RNF20 and E449K/K818E in RNF40) (human, UniProt Q5VTR2 321-900; O75150 327-926, E783K | D786K | E449K | K818E) in the same assay as above. Details: both partners purified.
T6 construct: RNF20, human, residues 321-900; RNF40, human, residues 327-926; source: E. coli BL21 Rosetta (DE3), purified from the mixed cell extract (strep-tactin, dextrin, gel filtration); copies: 1 + 1
T6 sequence (Q5VTR2 321-900 E783K/D786K, chain 1 of 2): as the sequence (Q5VTR2 321-900, chain 1 of 2) above, with E463K, D466K counted along it
T6 sequence (O75150 327-926 E449K/K818E, chain 2 of 2): as the sequence (O75150 327-926, chain 2 of 2) above, with E123K, K492E counted along it

Kd [nM] | koff [s⁻¹] | kon [M⁻¹ s⁻¹] | Binder
285 | 0.00308 | 10800 | B14

What follows are binders tested against T2, Bre1, 6× histidine tag, purified (assay: co-sedimentation; 5%–45% sucrose gradient, purified Bre1, Lge1 or their mixture; 20 mM TRIS (pH 7.5), 10 mM potassium chloride, 5 mM magnesium chloride; 27 000 rpm, 15 h, 4°C). Details: both partners purified.

binding result | Binder
binds | B15
